T1: MCM-3 (C. elegans, UniProt Q9XVR7 1-812)
T1 construct: MCM-3, C. elegans; Subunit of m11, written alone for its contacts in the structure; also called MCM-3 subunit of MCM-2-7; source: S. cerevisiae, purified as part of recombinant CMG
T1 sequence: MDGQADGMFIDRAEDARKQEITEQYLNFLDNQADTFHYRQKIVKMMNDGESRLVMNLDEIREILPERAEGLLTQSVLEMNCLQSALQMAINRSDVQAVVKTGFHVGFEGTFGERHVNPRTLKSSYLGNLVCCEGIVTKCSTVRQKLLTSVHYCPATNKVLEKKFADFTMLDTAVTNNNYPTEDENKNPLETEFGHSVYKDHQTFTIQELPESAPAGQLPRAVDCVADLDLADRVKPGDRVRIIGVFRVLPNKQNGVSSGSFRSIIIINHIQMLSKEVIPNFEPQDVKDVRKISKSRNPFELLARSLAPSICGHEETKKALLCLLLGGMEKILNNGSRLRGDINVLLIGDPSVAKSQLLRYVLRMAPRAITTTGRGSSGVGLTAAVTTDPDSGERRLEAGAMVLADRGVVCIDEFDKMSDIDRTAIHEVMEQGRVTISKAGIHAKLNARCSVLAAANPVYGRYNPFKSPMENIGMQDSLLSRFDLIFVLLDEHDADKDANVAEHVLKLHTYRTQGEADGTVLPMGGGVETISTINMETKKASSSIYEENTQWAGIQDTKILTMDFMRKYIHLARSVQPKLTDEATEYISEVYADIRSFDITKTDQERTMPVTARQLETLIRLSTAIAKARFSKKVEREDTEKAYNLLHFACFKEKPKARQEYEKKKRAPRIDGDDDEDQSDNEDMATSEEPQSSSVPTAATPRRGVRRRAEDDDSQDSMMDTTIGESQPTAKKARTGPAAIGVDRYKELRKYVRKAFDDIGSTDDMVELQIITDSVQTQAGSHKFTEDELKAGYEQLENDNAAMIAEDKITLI

T2: MCM-4 (C. elegans, UniProt Q95XQ8 1-823)
T2 construct: MCM-4, C. elegans; Subunit of m11, written alone for its interfaces in the structure; source: S. cerevisiae, purified as part of recombinant CMG
T2 sequence: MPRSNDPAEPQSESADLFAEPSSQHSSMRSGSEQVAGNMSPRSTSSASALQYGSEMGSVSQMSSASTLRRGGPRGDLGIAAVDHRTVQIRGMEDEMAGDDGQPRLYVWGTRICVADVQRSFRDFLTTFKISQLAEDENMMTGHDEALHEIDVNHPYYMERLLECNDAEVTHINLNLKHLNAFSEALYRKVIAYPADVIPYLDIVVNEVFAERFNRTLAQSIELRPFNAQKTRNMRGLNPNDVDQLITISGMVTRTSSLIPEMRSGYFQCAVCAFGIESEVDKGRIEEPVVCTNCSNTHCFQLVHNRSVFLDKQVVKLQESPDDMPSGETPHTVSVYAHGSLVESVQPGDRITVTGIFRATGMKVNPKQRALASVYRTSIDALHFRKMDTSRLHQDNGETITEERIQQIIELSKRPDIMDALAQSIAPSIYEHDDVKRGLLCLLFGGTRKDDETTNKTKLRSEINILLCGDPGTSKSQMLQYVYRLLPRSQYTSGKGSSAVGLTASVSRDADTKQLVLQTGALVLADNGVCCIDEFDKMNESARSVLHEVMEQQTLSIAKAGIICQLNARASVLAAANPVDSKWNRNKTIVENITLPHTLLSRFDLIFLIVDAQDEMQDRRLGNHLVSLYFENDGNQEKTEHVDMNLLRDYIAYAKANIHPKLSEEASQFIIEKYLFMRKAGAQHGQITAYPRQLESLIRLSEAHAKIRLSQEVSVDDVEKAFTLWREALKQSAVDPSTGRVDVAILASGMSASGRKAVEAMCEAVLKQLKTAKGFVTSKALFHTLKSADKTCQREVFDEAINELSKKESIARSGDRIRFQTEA


Tests used:
Assay in all cases: cryo-EM structure; CMG (125 nM) with fork DNA, AMP-PNP, TIM-1/TIPN-1 and DNSN-1 isoform c (each 1.3-fold molar excess), GraFix gradient with glutaraldehyde and BS3
[1] = molecular target: recombinant C. elegans DNSN-1 (C. elegans)
MCM-3 = molecular target: T1, MCM-3; settings: both partners purified
MCM-4 = molecular target: T2, MCM-4; settings: both partners purified

Row | Molecule | stoichiometry N [1] | binding result (MCM-3) | binding result (MCM-4)
1 | recombinant C. elegans DNSN-1 (natural protein) | 2 |  | 
2 | MCM-7 (natural protein, C. elegans, MCM-7, C. elegans; Subunit of m11, written alone for its interfaces in the structure; source: S. cerevisiae, purified as part of recombinant CMG) MKTTTYNTDWAAEKTKIRSFFDEYYVDNEDGSGKAFPYRDQVFEIARRDKQAIVVNVDHIKESDIPDALELSEAITSNTKRYEVLFKDTISDMIQDYLGDKQAPVIDALDAYMFQRLHMDRNEGAANEEVSLQDKRKKYPPQLLQRFEVYFTTDDAAHETCVRNIKATEIGHLVSMKGVVIRATEVKPCVEVMTYTCDTCAAEVYQPVKGMQFTPPVNCPNKECVEAKANGRLHMQLRGSKFVKFQELKIQELSEQVPVGSIPRTMTVHVYGEMTRKCNTGNVVHVSGVFLPIMQSGFRPTGGLVADTYLEAHYINNLDDNPTFNGVQSAELEVLRRKGDNYETLAASIAPEIFGHVDVKKCLLMALVGGNDNSSNGMKIRGCINVLMMGDPGVAKSQLLGYVNRLAPRSQYTTGRGSSGVGLTAAVMKDPVTGEMSLEGGALVLADGGICCIDEFDKMMDHDRTAIHEVMEQQTISIAKAGIMTTLNARTAIIAAANPAYGRYNPNRSIEQNVDLPAALLSRFDLILLMQDKADRENDKILAEHITYVHQHGCHPNREKKDLISLETLREYISLCKTYTPTVDPALRERIVEAYVEMRRDARYSSDPTFVSPRMILGIVRMATARAKLRLSTIVDESDVEEALRLMQFAKDSLRPEQNKIEKRMAPVDAAFAVLRELYHADNAPIAISNAIQRCARKGISEVALKKCLDQYTANGLLVMDRQNIVFAMN |  | binds | binds

Reference: paper PMC7615117, “DNSN-1 recruits GINS for CMG helicase assembly during DNA replication initiation in C. elegans” (Science (New York, N.Y.), 2023)
